The record followed here is the supplement of paper PMC9170038.

The series concerns MS2 coat protein. Put plainly: apparent KD of MS2 coat protein; higher = weaker reporter binding. The note with it: Eterna round: R107. The essentials:
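Each design's apparent KD comes from the median of binding-curve fits to its normalised clusters. Those clusters carried RNA switches transcribed on-chip from Illumina sequencing clusters. SNAP-549-labelled MS2 coat protein was titrated onto them in twofold steps (0.7 or 1.5 nM to 3 µM; per step 0.8–1.5 h down to 10–20 min). Conditions were 100 mM Tris-HCl pH 7.5, 80 mM KCl, 4 mM MgCl2, without or with constant ligand.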

Where [1] appears, read: input ligand: theophylline 20 uM.
[2] abbreviates: input ligand: theophylline 2 mM.
Where [3] appears, read: input ligand: tryptophan 2.4 mM.

As for “GUACACAUGAGGAUCACCCAUGUACUGGUACGAGGACCGGUACGGCCGCCACUCGCCGAGAUUCAUAACACAUCAGAAAGCUCAC [theeternabot_sameState_MS2_Trp_A_45]”, the “apparent KD of MS2 coat protein” value is, setting by setting: (input ligand: arginine 13.2 mM) 13.5 nM; under setting [1], 27.6 nM; under setting [2], 18.8 nM.

Consider “GUACAUGAGGAUCACCCAUGUAUAGUUGAAGGAGCGACCGGAGGGUCAGGUAGGUCGCAGCACAUGGCGUAAACCCGUGUAUGCC [#1 Exclusion - Arginine A Attempt #24 (Inspired by Pi)]”, for which the “apparent KD of MS2 coat protein” value was found to be 18.5 nM (input ligand: arginine 13.2 mM); 21.7 nM (input ligand: none); 32.7 nM under setting [1]; 31.9 nM under setting [2]; 23 nM under setting [3].

Consider “GUACAUGAGGAUCACCCAUGUAUAGUUGAAGGAGCGACCGGUGGGUCAGGUAGGUCGCAGCGCAUGGCGUCAACCCGUGUAUGCC [#1 Exclusion - Arginine A Attempt #27 (Inspired by Pi)]”, for which the “apparent KD of MS2 coat protein” value is, setting by setting: (input ligand: arginine 13.2 mM) 13.8 nM; (input ligand: none) 17.2 nM; under setting [1], 24.8 nM; under setting [2], 21 nM; under setting [3], 17.9 nM.

“GUUAUGGACCUGGAUACCAGCUGGUACGAGGGCGGUCUACAUGAGGAUCACCCAUGUGUCAGCCCUUGGCAGCCAGCAACCCGCU [Raquleer]”: the “apparent KD of MS2 coat protein” value reads like this: (input ligand: arginine 13.2 mM) 10 nM; (input ligand: none) 9.39 nM; under setting [1], 12.6 nM; under setting [2], 11.9 nM; under setting [3], 9.92 nM.

“GUUGGAUGCUCGGCCGCCACUGAGAGAGUCAUGUGAACAUGAGGAUCACCCAUGUAAUAUAUAUACAGGACCGGGAGUGUUGUAA [4.J]”: the “apparent KD of MS2 coat protein” value (input ligand: arginine 13.2 mM) was 19.7 nM; the “apparent KD of MS2 coat protein” value (input ligand: none) was determined as 19.5 nM; the “apparent KD of MS2 coat protein” value under setting [1] was 50.6 nM; the “apparent KD of MS2 coat protein” value under setting [2] was 25 nM; the “apparent KD of MS2 coat protein” value under setting [3] was 13.3 nM.

On to “GUUGGUUUGCGAAGGAGCGGGUAUGUUGUCUACUUGAUCCUAACAUGAGGAUCACCCAUGUCCCAGGUAGGUCGCGCGGGCUUUG [12.aC]”, for which the “apparent KD of MS2 coat protein” value turned out to be 37 nM (input ligand: arginine 13.2 mM); 45.1 nM (input ligand: none); 63.9 nM under setting [1]; 81 nM under setting [2]; 46.8 nM under setting [3].

With “GUUGGUUUGGGAAGGAGCGGGUAUGUUGUCUACUUGAUCCUAACAUGAGGAUCACCCAUGUCCCAGGUAGGUCGCCCAAGCUUUG [12.aE]”, the “apparent KD of MS2 coat protein” value is 69.8 nM (input ligand: arginine 13.2 mM); 161 nM (input ligand: none); 152 nM under setting [1]; 316 nM under setting [2]; 186 nM under setting [3].

As to “GUUUUAUCAAAAGAUGAAACAGUGGGUGAACGAGGACCGGUACGGCCGCCACUCGGACAUGAGGAUCACCCAUGUCCAUGUGAAA [AstrosExyTryA#13]”, the “apparent KD of MS2 coat protein” value by setting is: (input ligand: arginine 13.2 mM) 15.4 nM; (input ligand: none) 18.4 nM; under setting [1], 17.1 nM; under setting [2], 21.1 nM; under setting [3], 54.1 nM.

As to “GUUUUGGGAUCGGCCGCCACUACAUGAGGAUCACCCAUGUGGACAAAUAGGGUUUUUAAGCUCGGUAGGACCGGGAUUCGAACAU [Abeis]”, the “apparent KD of MS2 coat protein” value (input ligand: arginine 13.2 mM) amounted to 15.4 nM, the “apparent KD of MS2 coat protein” value under setting [1] turned out to be 19 nM and the “apparent KD of MS2 coat protein” value under setting [2] was 17.5 nM.

Turning to “UAAACUACACAUGAGGAUCACCCAUGUGGCCGAGGACCGGUACGGCCGCCACUCGUGUGUUAAUAAAAGAACUGCAAAGUUCCUU [Aquen]”, the “apparent KD of MS2 coat protein” value came out at 63.1 nM (input ligand: arginine 13.2 mM), 416 nM under setting [1] and 504 nM under setting [2].

With “UAACAUGAGGAUCACCCAUGUAUACUAAGUCGAGGACCGGUACGGCCGCCACUCGAAAUUGAAGAAUUGGCGGUAAAUGUAAGUA [JR_ExcTryptoA_Sub019]”, the “apparent KD of MS2 coat protein” value worked out at 12.6 nM (input ligand: arginine 13.2 mM), 15.9 nM under setting [1] and 14.3 nM under setting [2].

Take “UAACAUGAGGAUCACCCAUGUAUACUUAGUCGAGGACCGGUACGGCCGCCACUCGUACUUCAAGAUUUGGCGGAAAAUGUAUGUA [JR_ExcTryptoA_Sub021]”: the “apparent KD of MS2 coat protein” value stood at 14.2 nM (input ligand: arginine 13.2 mM), 15.6 nM under setting [1] and 12.5 nM under setting [2].

On to “UAAUGCAGGUCGGCCGCCACUACAAACAUGAGGAUCACCCAUGUAGUUACUGGGUGAAGUGGCAGUAGGACCGGGACCUGCAUAA [Trp-Ms2-T'-M'-T''_Design1]”, for which the “apparent KD of MS2 coat protein” value was found to be 102 nM (input ligand: arginine 13.2 mM), 602 nM under setting [1] and 1040 nM under setting [2].

With “UAAUUCACUAUUCACGGUCCGAUGUUCGAUACCAGAUCAUUUCGAAUCCCUUGGCAGCGAUUAACAUGAGGAUCACCCAUGUAAC [theeternabot_exclusion_MS2_Theo_A_35]”, the “apparent KD of MS2 coat protein” value runs as follows: (input ligand: arginine 13.2 mM) 28.4 nM; under setting [1], 40.6 nM; under setting [3], 38.6 nM.

For “UACACAUGACAUGAUACCAGCCCAUGUGAACAUGAGGAUCACCCAUGUAUGAGGACAUGAGGCCCUUGGCAGCAUGUAUACAUGA [Same State Theophylline B 2]”, the “apparent KD of MS2 coat protein” value turned out to be 11.6 nM (input ligand: arginine 13.2 mM), 12.7 nM under setting [1] and 11.4 nM under setting [3].

“UACAUGAGGAUCACCCAUGUAUGAAGGGAUACCAGCGACAGUAAGCGCCCUUGGCAGCCCGUGAAUAAAGGGUGGGUAAAAUAGU [Exclusion Theophyline A GF 3]”: the “apparent KD of MS2 coat protein” value was 26.9 nM (input ligand: arginine 13.2 mM); 21.4 nM (input ligand: none); 30.9 nM under setting [1]; 39.4 nM under setting [2]; 16.1 nM under setting [3].

As to “UACUUGCUGACGGCCGCCACUAGAACAUGAGGAUCACCCAUGUACCCGGUCCUAAUCCUCAUGACUAGGACCGGGUCAGCAAGAU [(Trp1)-(Ms2)-(T)'-(M)'-(Trp2)_Design2]”, the “apparent KD of MS2 coat protein” value is, setting by setting: (input ligand: arginine 13.2 mM) 26.4 nM; under setting [1], 42.1 nM; under setting [2], 35.5 nM.
